Key:
OR7C1 = biological target: T1, OR7C1 (Homo sapiens, UniProt O76099, D296E/G302K/M297V/R299D/T295K/V126I); assay: CRE-luciferase assay, HEK293T cells expressing OR7C1 (wild-type / modified C-terminus); type: cell-based; settings: OR7C1 variant, 1 μM Ambermax
T1 construct: Improved functional expression of modified OR-genes containing the truncated, optimized C-terminus; expressed in transfected cells; host or cells: HEK293T stably expressing human RTP1S(V227I) and RTP2(L220R)
T1 sequence (O76099 with tags, fused parts or gaps V126I/T295K/D296E/M297V/R299D/G302K): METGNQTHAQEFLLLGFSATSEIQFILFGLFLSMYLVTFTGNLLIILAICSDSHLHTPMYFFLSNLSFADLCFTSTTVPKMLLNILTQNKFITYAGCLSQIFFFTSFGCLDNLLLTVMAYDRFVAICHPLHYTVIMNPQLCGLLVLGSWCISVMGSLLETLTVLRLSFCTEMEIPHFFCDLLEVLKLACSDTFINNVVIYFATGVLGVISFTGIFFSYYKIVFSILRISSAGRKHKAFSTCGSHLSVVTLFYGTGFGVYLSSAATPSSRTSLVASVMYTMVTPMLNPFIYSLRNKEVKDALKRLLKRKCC
Excerpt: To test for possible variants of the sequence […]CC (SEQ ID NO: 86) leading to similar improved functional expression, different point mutations were introduced into the first 16 amino acids of this sequence (corresponding to […], SEQ ID NO: 10) and the variants were fused after the TM7 with OR7C1. […] The test concentrations were selected to fall into the range of partial activity of the wild-type sequence.

OR7D4 = biological target: T2, OR7D4 (Homo sapiens, UniProt Q8NG98, D296E/E302K/G299D); assay: CRE-luciferase assay, HEK cells expressing OR7D4 (wild-type / modified C-terminus); type: cell-based; settings: OR7D4 variant; for EC2 (concentration for 2-fold luciferase induction) / EC2 Fold-improvement vs. wild-type: Androstenone
T2 construct: Improved functional expression of modified OR-genes containing the truncated, optimized C-terminus; expressed in transfected cells
T2 sequence (Q8NG98 with tags, fused parts or gaps D296E/G299D/E302K): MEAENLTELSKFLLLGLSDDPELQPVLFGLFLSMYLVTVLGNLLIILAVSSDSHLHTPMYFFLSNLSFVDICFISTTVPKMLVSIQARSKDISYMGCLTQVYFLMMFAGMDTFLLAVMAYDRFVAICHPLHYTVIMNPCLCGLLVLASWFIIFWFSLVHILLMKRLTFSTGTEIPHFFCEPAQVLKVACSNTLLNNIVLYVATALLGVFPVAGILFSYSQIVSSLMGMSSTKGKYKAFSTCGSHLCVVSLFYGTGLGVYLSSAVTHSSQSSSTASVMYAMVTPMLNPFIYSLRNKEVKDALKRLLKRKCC
Excerpt: Random permutations of the general C-terminal sequence RN[KR][EDQ][VMIL][KR]KA[LIV][KRH][KR][LI][LIF][KRG][KR][KR]CC (SEQ ID NO: 822) linked to OR7D4 were generated based on degenerate oligonucleotides for the C-terminal domain. For this experiment, the MfeI/XhoI fragment from pcDNA3.1(+)-mmLucy-FLAG-rho-OR7D4 containing the CMV promoter and the OR coding sequence was used to replace the EcoRI/SalI fragment of pRDVCCB-CMV-dCas9-VPH-2A-Blast (Cellecta, Inc., Mountain View, USA). Complementary degenerate oligonucleotides were then used to replace the coding region of the C-terminal domain of […] (between Bsu36I and NotI). Random clones were selected, sequenced and tested for a correct open reading frame. A total of 55 clones were obtained with the correct open reading frame of […] and a permutation of the general sequence RN[KR][EDQ][VMIL][KR]KA[LIV][KRH][KR][LI][LIF][KRG][KR][KR]CC (SEQ ID NO: 822) as the C-terminal domain. All the different clones were compared to the wild-type sequence by the functional assay in HEK cells with the ligand Androstenone tested in a dose-response test.

Substance	% of the activation by the optimized sequence RNKEVKDALKRLLKRKCC (OR7C1) [%]	other results
Ala Ala	2.1	–
Ala Glu	2.1	–
Arg Arg	167.7	–
Arg Gly	139.9	–
Arg Lys	2.0	–
Arg Phe	130.8	–
Arg Pro	83.9	–
Arg Tyr	72.0	–
Cys Gly	142.3	–
Cys Phe	100.5	–
Gln Glu	0.0	–
Glu Arg	85.0	–
Glu Lys	153.0	–
Gly Cys	126.8	–
Gly Gly	128.9	–
Gly Leu	91.4	–
His Asp	1.6	–
His Pro	114.6	–
Ile Ala	0.0	–
Lys Ala	3.5	–

Substance	% of the activation by the optimized sequence RNKEVKDALKRLLKRKCC (OR7C1) [%]	other results
Phe Arg	181.7	–
Phe Phe	103.8	–
Pro Ala	75.6	–
Pro Arg	142.3	–
Pro Gln	211.8	–
Pro Gly	111.9	–
Pro Pro	36.2	–
SEQ ID NO: 87 (RNREVKDALKRLLKRKCC; source 1..18: note = C-terminal domain sequence)	119.1	–
SEQ ID NO: 88 (RNKEIKDALKRLLKRKCC; source 1..18: note = C-terminal domain sequence)	66.5	–
SEQ ID NO: 89 (RNKEMKDALKRLLKRKCC; source 1..18: note = C-terminal domain sequence)	76.7	–
SEQ ID NO: 90 (RNKEVRDALKRLLKRKCC; source 1..18: note = C-terminal domain sequence)	117.4	–
SEQ ID NO: 91 (RNKEVKKALKRLLKRKCC; source 1..18: note = C-terminal domain sequence)	140.8	–
SEQ ID NO: 92 (RNKEVKEALKRLLKRKCC; source 1..18: note = C-terminal domain sequence)	81.3	–
SEQ ID NO: 93 (RNKEVKNALKRLLKRKCC; source 1..18: note = C-terminal domain sequence)	95.3	–
SEQ ID NO: 94 (RNKEVKRALKRLLKRKCC; source 1..18: note = C-terminal domain sequence)	176.6	–
SEQ ID NO: 95 (RNKEVKVALKRLLKRKCC; source 1..18: note = C-terminal domain sequence)	122.1	–
SEQ ID NO: 96 (RNKEVKAALKRLLKRKCC; source 1..18: note = C-terminal domain sequence)	115.3	–
SEQ ID NO: 97 (RNKEVKQALKRLLKRKCC; source 1..18: note = C-terminal domain sequence)	128.4	–
SEQ ID NO: 98 (RNKEVKDAVKRLLKRKCC; source 1..18: note = C-terminal domain sequence)	120.1	–
SEQ ID NO: 99 (RNKEVKDAIKRLLKRKCC; source 1..18: note = C-terminal domain sequence)	174.6	–

Substance	% of the activation by the optimized sequence RNKEVKDALKRLLKRKCC (OR7C1) [%]	other results
SEQ ID NO: 100 (RNKEVKDALRRLLKRKCC; source 1..18: note = C-terminal domain sequence)	86.0	–
SEQ ID NO: 101 (RNKEVKDALKKLLKRKCC; source 1..18: note = C-terminal domain sequence)	86.8	–
SEQ ID NO: 102 (RNKEVKDALKRLIKRKCC; source 1..18: note = C-terminal domain sequence)	88.6	–
SEQ ID NO: 103 (RNKEVKDALKRLFKRKCC; source 1..18: note = C-terminal domain sequence)	207.1	–
SEQ ID NO: 104 (RNKEVKDALKRLLRRKCC; source 1..18: note = C-terminal domain sequence)	96.3	–
SEQ ID NO: 105 (RNKEVKDALKRLLKKKCC; source 1..18: note = C-terminal domain sequence)	106.7	–
SEQ ID NO: 106 (RNKEVKDALKRLLKRRCC; source 1..18: note = C-terminal domain sequence)	104.1	–
SEQ ID NO: 107 (RNKDVKDALKRLLKRKCC; source 1..18: note = C-terminal domain sequence)	53.2	–
SEQ ID NO: 108 (RNKQVKDALKRLLKRKCC; source 1..18: note = C-terminal domain sequence)	42.0	–
SEQ ID NO: 109 (RNKELKDALKRLLKRKCC; source 1..18: note = C-terminal domain sequence)	43.8	–
SEQ ID NO: 110 (RNKEVKGALKRLLKRKCC; source 1..18: note = C-terminal domain sequence)	41.6	–
SEQ ID NO: 111 (RNKEVKDALHRLLKRKCC; source 1..18: note = C-terminal domain sequence)	44.4	–
SEQ ID NO: 112 (RNKEVKDALKRILKRKCC; source 1..18: note = C-terminal domain sequence)	53.2	–
SEQ ID NO: 113 (RNKEVKDALKRLLGRKCC; source 1..18: note = C-terminal domain sequence)	63.2	–
SEQ ID NO: 119 (RNKEVKDALRKLLKRKCC; source 1..18: note = C-terminal domain sequence)	157.1	–
SEQ ID NO: 303 (RNRDMKKALKKLFRRRCC; source 1..18: note = C-terminal domain sequence)	–	EC2 (concentration for 2-fold luciferase induction) (OR7D4): 0.011 µM; EC2 Fold-improvement vs. wild-type (OR7D4): 150.37
SEQ ID NO: 304 (RNRDVRKALKRLLGRRCC; source 1..18: note = C-terminal domain sequence)	–	EC2 (concentration for 2-fold luciferase induction) (OR7D4): 0.006 µM; EC2 Fold-improvement vs. wild-type (OR7D4): 292.59
SEQ ID NO: 305 (RNKDLKKAVKKLFGRKCC; source 1..18: note = C-terminal domain sequence)	–	Fold induction luciferase (OR7D4; 0.1 μM Androstenone): 1.63; Fold induction luciferase (OR7D4; 1 μM Androstenone): 10.13; EC2 (concentration for 2-fold luciferase induction) (OR7D4): 0.131 µM; EC2 Fold-improvement vs. wild-type (OR7D4): 13.15
SEQ ID NO: 306 (RNKDVRKAVRRLFGRRCC; source 1..18: note = C-terminal domain sequence)	–	EC2 (concentration for 2-fold luciferase induction) (OR7D4): 0.017 µM; EC2 Fold-improvement vs. wild-type (OR7D4): 103.17

Reference: patent US20260210939A1, “MODIFIED OLFACTORY RECEPTORS” (GIVAUDAN SA, priority 2022, published 2026)
